Assay results taken from the RNAGym collection of RNA variant scans (doi:10.7554/elife.80360).

B1: HDV Ribozyme (parent)
chain: GGCCGGCAUGGUCCCAGCCUCCUCGCUGGCGCCGGCUGGGCAACAUUCCGAGGGGACCGUCCCCUCGGUAAUGGCGAAUGGGACCCA

Variants of: B1
Assay: self-cleavage, relative activity (ratio to wild type); higher = more cleavage; co-transcriptional

Variant | self-cleavage
C13A C62A | 0.158
C13A C62U | 0.214
C13G C41G | 0
C13G C41A | 0.0489
C13G G50A | 0.131
C13G G50C | 0.0594
C13A U46C | 0.203
C13A U46A | 0.0346
C13G U72C | 0.0723
C13U | 0.683
C13A | 0.21
C13G | 0.078
C13G C18A | 0.0831
C13U C22U | 0.193
C13A C26U | 0.764
U12G U72A | 0.525
C13U A71G | 0.429
C13U A71U | 0.494
C13G G40U | 0.104
C13G G40A | 0.119
C13A U23G | 0.0923
C13G G68A | 0
C13A G40C | 0
C13A G40U | 0.0326

Variant | self-cleavage
C13A G40A | 0.233
C13G G17U | 0.0426
U12G G82C | 0.633
U12G G82U | 0.519
U12G G82A | 0.499
C13G G54C | 0.115
C13G G54A | 0.0604
C13G G54U | 0.0282
U12G G40C | 0.123
U12G G40A | 0.72
C13A G34U | 0
C13A G34A | 0.131
C13A G34C | 0.151
C13A G82C | 0.17
C13A G82A | 0.264
C13U A78C | 0.119
C13A U27A | 0.831
C13A C18G | 0.0773
C13A C18U | 0.0604
C13A G74U | 0.0443
U12G G81C | 0.665
U12G G81A | 0.201
U12G G81U | 0.266
C13A A56U | 0.312

Variant | self-cleavage
C13U C61G | 0.684
C13G C61A | 0.148
C13G G28U | 0
C13G G35C | 0.0536
C13G G35U | 0.0504
C13G G35A | 0.0449
C13A C32G | 0.0346
C13A C75G | 0.145
C13A C75A | 0.0573
C13U C63G | 0.233
C13U C63U | 0.696
C13A U65A | 0.348
C13U C18A | 0.0652
C13A C44A | 0.119
C13A C44U | 0.0652
C13A C44G | 0
C13G A83U | 0
C13G A83G | 0.0361
C13G C44U | 0
C13G C44A | 0.0449
C13A G39A | 0.121
U12G G38A | 0.0978
C13G U37G | 0
C13U A83C | 0.344

Variant | self-cleavage
C13G U79A | 0
C13G U79G | 0.0755
C13G A56U | 0
C13A C14A | 0.128
C13A G67C | 0.259
C13A G67U | 0.17
C13A G67A | 0.23
C13G C86A | 0.0811
C13G C86G | 0.0978
U12G U69G | 0.831
C13U A42G | 0.0755
U12G G55C | 0.95
C13G C57A | 0.0554
C13G C57U | 0.0426
C13G C57G | 0.107
U12G G67U | 0.731
U12G G34U | 0.266
U12G G31C | 0.138
U12G G31U | 0.277
U12G G50C | 0.727
U12G G50U | 0.87
C13G A71C | 0
C13G C14A | 0
C13G C14U | 0.208

Variant | self-cleavage
C13G C32A | 0.0875
C13G C32U | 0.0437
C13G U47G | 0.151
C13G U47C | 0
C13G U47A | 0
C13A U20C | 0.0405
U12G G52U | 0.617
C13G A45G | 0.138
C13U A56U | 0.554
C13U A56G | 0.573
C13A G29A | 0.0268
C13A C63U | 0.0627
U12G U23C | 0.997
C13A C48A | 0
C13A C48G | 0.138
C13U C41G | 0.739
C13U C41U | 0.323
C13U C41A | 0.522
C13A U69C | 0.111
C13A U69A | 0.277
U12G G54U | 0.793
U12G G54A | 0.831
U12G G74C | 0.151
C13A A42C | 0.0594

Variant | self-cleavage
C13G G55C | 0.135
C13G G55U | 0.0583
C13U C36U | 0.256
C13G A51G | 0.123
C13G A51U | 0
U12G G73U | 0.166
U12G G73C | 0.489
C13G C66A | 0.0339
C13U C24G | 0.0615
C13U C24A | 0.381
C13U C15U | 0.733
C13U C15G | 0.356
C13A G76U | 0.317
C13A C15U | 0.185
C13A C15A | 0
C13G G29A | 0.0573
C13G G29U | 0.0415
C13G C62G | 0.158
C13U C58G | 0.554
C13U C58A | 0.665
C13A A43C | 0.135
C13G A16G | 0.0831
C13G A16C | 0.0554
C13G A16U | 0.19

Variant | self-cleavage
C13U C64A | 0.807
C13U C64G | 0.567
C13G A87G | 0.0903
C13G A87C | 0
C13U C62A | 0.489
C13U C62U | 0.589
C13U C48A | 0.415
C13U C48G | 0.499
C13A C22A | 0.0287
C13A C22G | 0.026
U12G G59A | 0.929
U12G G59C | 0.95
C13U A51C | 0.997
C13U A51G | 0.89
C13U C49U | 0.256
C13U C49G | 0.426
C13G G34C | 0.178
C13G G34A | 0.0536
U12G G39C | 0.208
U12G G39A | 0.403
C13A G55A | 0.222
C13A G55U | 0.0707
C13A G55C | 0.143
C13A C36G | 0.192

Variant | self-cleavage
C13A C36U | 0.0432
C13A C36A | 0.0421
C13G U46A | 0.0615
C13U C33U | 0.397
C13U C33G | 0.252
C13A A87U | 0.157
C13A A87C | 0.222
C13U A70C | 0.453
C13U A70U | 0.342
C13G G73C | 0.0396
C13G G73U | 0.0361
C13G G73A | 0.0665
C13A U60A | 0.214
C13A U60G | 0.136
C13A U60C | 0.0573
U12G G35C | 0.151
U12G G35U | 0.104
C13U A87G | 0.634
C13U A87U | 0.819
C13U A87C | 0.647
C13G C22U | 0
C13A G50U | 0.282
C13A G50A | 0.295
U12G U20C | 0

Variant | self-cleavage
U12G U20G | 0
C13A A70C | 0.285
C13A A70U | 0.0405
U12G U27A | 0.831
C13G C49A | 0.123
C13G C85G | 0.0692
C13A C64G | 0.19
C13A C64U | 0.242
C13U C19G | 0.138
C13A U79C | 0.0692
C13A G80C | 0.125
C13A G80A | 0.106
C13A C41A | 0.219
C13A C41U | 0.149
C13U C14U | 0.308
C13A C66A | 0.125
C13A C66G | 0.378
C13A C66U | 0.125
C13A U37G | 0.147
C13A U37A | 0
C13U C44U | 0.185
C13U C44G | 0.332
C13U C44A | 0.18
C13A U72A | 0

Variant | self-cleavage
C13A U72G | 0.0639
C13A U72C | 0.0573
U12G G29U | 0.0489
U12G G29A | 0.0978
U12G G29C | 0.175
C13G G31C | 0
C13G G31A | 0.0923
C13G A77G | 0.199
C13G A77C | 0.0615
U12G G80U | 0.534
C13A C85G | 0.0396
C13A C85U | 0.141
C13G G53U | 0.102
C13G G53A | 0.163
C13G U27G | 0.396
C13G U27A | 0.391
C13A G68C | 0.151
C13A G68A | 0.187
C13U A45G | 0.465
C13G A70G | 0.229
C13G A70C | 0
C13A A51C | 0.0898
C13A A51G | 0.148
C13A G25C | 0.0773

Variant | self-cleavage
C13A G25A | 0.0277
C13A G81A | 0.16
C13A A83C | 0.166
C13A A83G | 0.086
C13A C33A | 0.0396
C13A C33U | 0.369
C13G C33U | 0.0475
C13G C15U | 0
C13G C15A | 0.128
U12G U47C | 0.437
U12G U47G | 1.21
C13G G76U | 0.104
C13A C84A | 0.831
C13A C84U | 0.227
C13A G38U | 0.0536
C13A G38A | 0.0631
C13A G38C | 0.106
C13G G67C | 0.0665
C13G G38A | 0.0302
C13G G38U | 0.0292
C13A U47C | 0.277
C13A U47A | 0.148
C13A U47G | 0.138
C13G C63A | 0.0906

Variant | self-cleavage
C13G U65G | 0.115
C13G A43G | 0.133
C13A G28C | 0.111
C13U A16G | 0.978
C13G C64U | 0.0268
C13G C64A | 0.0396
C13G C26U | 0.208
C13A G35A | 0.0339
C13G G25C | 0.0875
U12G G76U | 1.17
U12G G76A | 0.917
U12G G76C | 1.2
C13G C48G | 0.0615
C13G C48A | 0.26
C13G U69C | 0.111
C13G G81U | 0.0475
C13G G81A | 0.0426
C13G G81C | 0.229
C13A G59U | 0.356
C13A G59A | 0.166
C13U C66G | 0.589
U12G U60G | 0.831
U12G U60C | 0.895
C13G U20G | 0

Variant | self-cleavage
C13G U20A | 0
C13G U20C | 0.158
C13A A71U | 0.0615
U12G U65G | 0.962
U12G U65C | 0.831
C13G U60A | 0.237
C13G U60C | 0
C13G C58G | 0.119
C13G C58U | 0.0898
C13G C84A | 0
C13G C84G | 0.0978
C13U C21G | 0.115
C13U C21A | 0.192
U12G G53U | 1.01
U12G G53A | 0.88
C13A A16G | 0.293
C13A A16C | 0.748
C13G A42C | 0
C13G A42G | 0.178
C13G C75A | 0
C13G C75G | 0.128
C13G C75U | 0.0594
C13A C21U | 0.0583
C13A C21A | 0.158

Variant | self-cleavage
C13A C57G | 0.19
C13A G73U | 0.0615
C13A G73A | 0.0863
C13A G73C | 0.0767
C13A G54A | 0.117
C13A G54C | 0.283
C13U C57G | 0.587
U12G U79C | 0.243
C13G G74A | 0.0405
C13G G74U | 0.0386
C13A C86A | 0.492
C13A C86G | 0.178
C13U A77U | 0.155
C13U A77G | 0.399
C13A A78C | 0.0297
C13A A78G | 0.0773
C13U C26G | 0.831
C13U C26A | 1.23
C13U C26U | 1.07
C13U A43G | 0.525
C13A C24G | 0.117
C13A C24A | 0
